Key:
[1] = molecular target: T1, HER2 immunoprecipitated from the membrane fraction of HER2-type breast cancer cells (HER2 solution) (human, UniProt P04626 23-1255, glycosylated; also tested after PNGase F treatment); test: lectin array with immunoprecipitated HER2, with and without PNGase F; confirmed by Western and lectin blotting
T1 construct: Not fractionated by lectin; also called breast cancer cell-derived HER2; unfractionated HER2

[2] = molecular target: T2, HER2 immunoprecipitated from the membrane fraction of cardiomyocytes (human, UniProt P04626 23-1255); test: lectin blot of immunoprecipitated HER2 after electrophoresis (legend of Fig. 3)
T2 construct: also called cardiomyocyte-derived HER2; myocardial cell-derived HER2

binding result [1] | binding result [2] | Binder
binds | binds | AOL (Aspergillus oryzae lectin) (other, UniProt Q2UNX8 1-311, looked up, also called biotinylated AOL) MSTPGAQEVLFRTGIAAVNSTNHLRVYFQDSHGSIRESLYESGWANGTAKNVIAKAKLGTPLAATSKELKNIRVYSLTEDNVLQEAAYDSGSGWYNGALAGAKFTVAPYSRIGSVFLAGTNALQLRIYAQKTDNTIQEYMWNGDGWKEGTNLGVALPGTGIGVTCWRYTDYDGPSIRVWFQTDNLKLVQRAYDPHTGWYKELTTIFDKAPPRCAIAATNFNPGKSSIYMRIYFVNSDNTIWQVCWDHGQGYHDKRTITPVIQGSEIAIISWEGPELRLYFQNGTYVSAISEWTWGKAHGSQLGRRALPPAE
binds | binds | AAL (Aleuria aurantia lectin) (other, UniProt P18891 2-313, looked up, also called AAL lectin) PTEFLYTSKIAAISWAATGGRQQRVYFQDLNGKIREAQRGGDNPWTGGSSQNVIGEAKLFSPLAAVTWKSAQGIQIRVYCVNKDNILSEFVYDGSKWITGQLGSVGVKVGSNSKLAALQWGGSESAPPNIRVYYQKSNGSGSSIHEYVWSGKWTAGASFGSTVPGTGIGATAIGPGRLRIYYQATDNKIREHCWDSNSWYVGGFSASASAGVSIAAISWGSTPNIRVYWQKGREELYEAAYGGSWNTPGQIKDASRPTPSLPDTFIAANSSGNIDISVFFQASGVSLQQWQWISGKGWSIGAVVPTGTPAGW
